{
  "source": "patent US9989536B2",
  "about": "“Specific and high affinity binding proteins comprising modified SH3 domains of FYN kinase” (EIDGENOESSISCHE TECHNISCHE HOCHSCHULE ZURICH, priority 2006, dated 2018)",
  "key": {"[1]": {"conditions": "Humira Drug Approval Package; cited from earlier work"}, "[2]": {"test_system": "Normal Human Dermal Fibroblasts (NHDF)", "assay": "XTT viability of NHDF cells", "type": "cell-based", "conditions": "polypeptides at 750 nM, IL-17 receptor 10 nM, 24 hours", "procedure": "IL-17A induces the production of IL-6 in fibroblasts in a dose-dependent manner (Yao et al. (1995) Immunity, 3, p. 811-821). […] Cell culture supernatants were taken after 24 h of stimulation and assayed for IL-6 with ELISA. […] Only viable and metabolic active cells are capable of reducing the tetrazolium salt XTT to orange-colored compounds of formazan (Scudiero, et al. (1988), Cancer Res. 48, p. 4827-4833).\n400 μl of a cell suspension containing about 1×10^4 Normal Human Dermal Fibroblasts (PromoCell, NHDF-c, C12300) were distributed per well (24 well plate, Nunc or TPP) and cultured for 24 hours at 37° C. (medium: Fibroblast Growth Medium C-23010, PromoCell). […] After 24 hours incubation at 37° C. the supernatant was aspirated and the IL-6 concentration was determined by ELISA according to the manufacturer's instructions (IL-6 ELISA kit, R&D Systems). Immediately after the aspiration of the supernatant the XTT-containing medium was added (Cell Proliferation Kit II, Roche) and cell viability was determined according to the manufacturer's instructions."}, "[3]": {"test_system": "F9 murine teratocarcinoma", "assay": "Quantitative biodistribution of 125I-labeled protein in tumor-bearing mice", "type": "in vivo", "conditions": "i.v., 24 h"}, "[4]": {"target": "T1, IL-17A (Homo sapiens, UniProt Q16552)", "T1 construct": "purchased R&D Systems", "T1 sequence (Q16552 20-155 limits assumed)": "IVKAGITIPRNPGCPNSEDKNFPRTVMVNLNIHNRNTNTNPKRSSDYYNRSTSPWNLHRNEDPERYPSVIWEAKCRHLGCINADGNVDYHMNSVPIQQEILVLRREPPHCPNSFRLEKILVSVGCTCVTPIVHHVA", "assay": "IL-17A inhibition cell assay (IL-6 production in NHDF, 50 ng/ml IL-17A)", "type": "cell-based", "conditions": "NHDF cells in presence of IL-17A"}, "[5]": {"target": "T1, IL-17A", "assay": "Acute inflammation model: human IL-17A induced KC production in mice", "type": "in vivo, mouse", "conditions": "C57BL/6 mice, co-injected s.c. with 3 μg human IL-17A (17 μg 2C1, 16 μg wt), 2 hours", "procedure": "Human IL-17A is able to bind and stimulate the mouse IL-17 receptor, leading to an elevation and subsequent secretion of mouse KC (CXCL1) chemokine (Allan B. et al. (2007) WO2007/070750 of Eli Lilly, US). The observed KC levels 2 hours after s.c. IL-17A injection (3 μg) were between […] in the serum, compared to around […] KC basal levels.\nThe blood samples were centrifuged for 10 min at 9500×g and the serum was stored at −20° until ELISA analysis was performed. KC levels in serum were determined using the commercially available Quantikine mouse CLCL1/KC kit (R&D Systems).\nAfter 20-60 minutes, 3 μg/mouse of human IL-17A (R&D Systems) was injected s.c. and 2 hours after IL-17A injection, blood samples were taken from the vena saphena with the capillary Microvette CB 300 (Sarstedt). The blood samples were centrifuged for 10 min at 9500×g and the serum was stored at −20° until ELISA analysis was performed. KC levels in serum were determined using the commercially available Quantikine mouse CLCL1/KC kit (R&D Systems)."}},
  "data": [
    {"substance": "adalimumab", "values": [
      {"measurement": "half-life of other human antibodies in mice", "setting": "[1]", "result": "102 to 193", "unit": "h"}
    ]},
    {"substance": "IL-17A receptor-Fc chimera: commercially available human IL-17A receptor Fc chimera (R&D Systems)", "values": [
      {"measurement": "cell viability (XTT assay)", "setting": "[2]", "result": "all cells were viable"}
    ]},
    {"substance": "Fyn SH3 wt: wild type SH3 domain of Fyn kinase, SEQ ID NO: 1 (SEQ ID NO: 339 in Example 5)", "values": [
      {"measurement": "accumulation in the tumor", "setting": "[3]", "result": "no enrichment"},
      {"measurement": "inhibition of IL-6 production", "setting": "[4]", "result": "no inhibition of IL-6 production"},
      {"measurement": "KC levels in mouse serum", "setting": "[5]", "result": "as high as in the group receiving IL-17A only"}
    ]}
  ]
}
